Reference: article PMC5477782 (Journal of internal medicine, 2017)

Tests used:
Assay in all cases: SPR
[1] = molecular target: T1, recombinant human haptoglobin β subunit (human, UniProt P00738 162-406)
T1 sequence (looked up): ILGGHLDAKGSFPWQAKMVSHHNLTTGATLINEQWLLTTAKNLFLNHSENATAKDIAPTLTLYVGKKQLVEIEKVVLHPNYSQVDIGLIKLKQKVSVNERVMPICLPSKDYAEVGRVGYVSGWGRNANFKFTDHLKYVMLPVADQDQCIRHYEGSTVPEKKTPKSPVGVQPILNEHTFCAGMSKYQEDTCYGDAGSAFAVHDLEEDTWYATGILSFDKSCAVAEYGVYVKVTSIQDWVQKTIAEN

[2] = molecular target: T2, native human haptoglobin β subunit (human, UniProt P00738 162-406)
T2 sequence (looked up): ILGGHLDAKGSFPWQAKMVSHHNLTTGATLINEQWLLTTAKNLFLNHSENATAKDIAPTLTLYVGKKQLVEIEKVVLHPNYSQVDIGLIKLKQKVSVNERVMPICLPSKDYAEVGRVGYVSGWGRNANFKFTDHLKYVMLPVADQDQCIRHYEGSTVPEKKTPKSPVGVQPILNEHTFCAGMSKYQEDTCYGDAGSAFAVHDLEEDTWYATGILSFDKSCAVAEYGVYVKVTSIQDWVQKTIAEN

[3] = molecular target: recombinant human CD163 protein (human, UniProt Q86VB7-1 42-1050)
Sequence of recombinant human CD163 protein (Q86VB7 42-1050): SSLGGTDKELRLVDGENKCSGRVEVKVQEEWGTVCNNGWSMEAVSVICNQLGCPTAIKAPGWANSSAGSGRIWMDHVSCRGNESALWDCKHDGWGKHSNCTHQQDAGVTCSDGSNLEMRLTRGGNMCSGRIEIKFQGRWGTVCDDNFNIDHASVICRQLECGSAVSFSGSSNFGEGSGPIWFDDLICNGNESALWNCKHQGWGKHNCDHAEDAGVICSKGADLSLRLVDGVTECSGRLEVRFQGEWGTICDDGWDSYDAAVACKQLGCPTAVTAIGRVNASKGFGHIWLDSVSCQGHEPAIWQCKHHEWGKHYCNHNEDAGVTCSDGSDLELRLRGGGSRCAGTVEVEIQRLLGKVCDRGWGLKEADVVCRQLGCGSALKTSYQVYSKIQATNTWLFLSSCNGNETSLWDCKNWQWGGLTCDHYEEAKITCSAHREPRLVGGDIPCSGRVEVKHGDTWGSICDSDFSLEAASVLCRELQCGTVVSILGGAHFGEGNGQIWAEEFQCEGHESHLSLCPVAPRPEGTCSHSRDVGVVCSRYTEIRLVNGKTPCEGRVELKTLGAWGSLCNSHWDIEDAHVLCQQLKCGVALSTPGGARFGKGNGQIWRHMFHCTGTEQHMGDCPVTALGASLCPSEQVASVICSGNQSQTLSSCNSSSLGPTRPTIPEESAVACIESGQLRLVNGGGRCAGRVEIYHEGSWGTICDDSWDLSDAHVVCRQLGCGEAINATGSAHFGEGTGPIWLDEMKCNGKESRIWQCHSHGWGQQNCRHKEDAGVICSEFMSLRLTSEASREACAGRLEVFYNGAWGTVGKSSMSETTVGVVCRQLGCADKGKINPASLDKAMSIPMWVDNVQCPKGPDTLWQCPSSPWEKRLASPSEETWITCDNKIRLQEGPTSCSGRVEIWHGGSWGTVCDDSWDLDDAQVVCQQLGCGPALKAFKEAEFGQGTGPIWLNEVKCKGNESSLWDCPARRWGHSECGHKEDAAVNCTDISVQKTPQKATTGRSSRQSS

B1: recombinant disulfide HMGB1 (natural protein, UniProt P09429 1-215, looked up)
chain: MGKGDPKKPRGKMSSYAFFVQTCREEHKKKHPDASVNFSEFSKKCSERWKTMSAKEKGKFEDMAKADKARYEREMKTYIPPKGETKKKFKDPNAPKRPPSAFFLFCSEYRPKIKGEHPGLSIGDVAKKLGEMWNNTAADDKQPYEKKAAKLKEKYEKDIAAYRAKGKPDAAKKGVVKAEKSKKKKEEEEDEEDEEDEEEEEDEEDEDEEEDDDDE
modifications: disulfide redox form (cysteines not named)
Q: How did the Kd [1] turn out when B1 was run?
A: 29 nM

Q: What about the Kd [2] of the same binder?
A: 30 nM

B2: HMGB1-haptoglobin β complexes (1:1 molar ratio) (complex)
chain 1: MGKGDPKKPRGKMSSYAFFVQTCREEHKKKHPDASVNFSEFSKKCSERWKTMSAKEKGKFEDMAKADKARYEREMKTYIPPKGETKKKFKDPNAPKRPPSAFFLFCSEYRPKIKGEHPGLSIGDVAKKLGEMWNNTAADDKQPYEKKAAKLKEKYEKDIAAYRAKGKPDAAKKGVVKAEKSKKKKEEEEDEEDEEDEEEEEDEEDEDEEEDDDDE
chain 2: ILGGHLDAKGSFPWQAKMVSHHNLTTGATLINEQWLLTTAKNLFLNHSENATAKDIAPTLTLYVGKKQLVEIEKVVLHPNYSQVDIGLIKLKQKVSVNERVMPICLPSKDYAEVGRVGYVSGWGRNANFKFTDHLKYVMLPVADQDQCIRHYEGSTVPEKKTPKSPVGVQPILNEHTFCAGMSKYQEDTCYGDAGSAFAVHDLEEDTWYATGILSFDKSCAVAEYGVYVKVTSIQDWVQKTIAEN
Q: How did the Kd [3] turn out when B2 was run?
A: 70 nM
